According to article PMC8119428, “LSD1-mediated demethylation of OCT4 safeguards pluripotent stem cells by maintaining the transcription of PORE-motif-containing genes”:

Molecular target: OCT4 K222F (Homo sapiens, UniProt Q01860 1-360, K222F)
Experiment: EMSA; homodimer; significantly increased vs WT and other variants; LightShift EMSA: 20 ul, 1.5 ug His-OCT4, 0.5 ug His-SOX2 where used, 50 nM biotin-dsDNA, 1 ul poly(dI-dC), 1x loading buffer (salt and pH not stated), 30 min, 25 C
Details: protein: recombinant; tags: His (pET28a); label: 5'-biotin on sense strand; blunt

Sequence of OCT4 K222F (Q01860 whole entry K222F): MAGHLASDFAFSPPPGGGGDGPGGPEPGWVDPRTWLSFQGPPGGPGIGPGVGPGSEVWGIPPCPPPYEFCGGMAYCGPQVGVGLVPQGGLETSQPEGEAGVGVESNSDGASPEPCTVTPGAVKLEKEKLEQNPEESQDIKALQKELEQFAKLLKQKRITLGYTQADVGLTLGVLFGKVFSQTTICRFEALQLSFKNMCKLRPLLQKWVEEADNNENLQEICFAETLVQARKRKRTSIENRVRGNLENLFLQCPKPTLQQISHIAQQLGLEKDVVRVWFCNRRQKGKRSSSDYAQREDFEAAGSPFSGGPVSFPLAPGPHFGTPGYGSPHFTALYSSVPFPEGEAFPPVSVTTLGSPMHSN

B1: PORE probe (dsDNA)
DNA 1: TATACTAAGCAATTCTTCATTGATTTGAAATGCAAATTTGACTGGGCACCCTGTATCTT
DNA 2: AAGATACAGGGTGCCCAGTCAAATTTGCATTTCAAATCAATGAAGAATTGCTTAGTATA
- binding result: binds
